# Laboratory results from the DeepSol protein solubility set.
# Experiment: soluble on expression in E. coli; label from the status in PepcDB or PDB records
row,Sequence,soluble on expression in E. coli
1,MGHHHHHHSHMNGEIMDDSLKTSLITEEEDSTSEVLDEELKLQPFNSSEDSTNLVPLVVESSKPPEVDAPDKTPRIPDSEMLMDEGTSDEKGHMEEKLSLLPRKKAHLGSSDNVATMSNEERSDGGFPNSVIAEFSEEPVSENLSPNTTSSLEDQGEEGVSEPQETSTALPQSSLIEVELEDVPFSQNAGQKNQSEEQSEASSEQLDQFTQSAEKAVDSSSEEIEVEVPVVDRRNLRRKAKGHKGPAKKKAKLT,not soluble
2,MVCIAAKCGNECSQCKHCHYALEQMSALAQGEKTSGLCPKLETCVFNCLTEDVSKVLSCVATRCNVHCYDGDCPSCKMISRRIFSNICKQHSMTTQPQIKYEGTCPNLFMELADDYVAMKKKKL,not soluble
3,MCQATNGPSRVVTKKHRKFFERHLQLLPSSHQGHDVNRMAIIFYSISGLSIFDVNVSAKYGDHLGWMRKHYIKTVLDDTENTVISGFVGSLVMNIPHATTINLPNTLFALLSMIMLRDYEYFETILDKRSLARFVSKCQRPDRGSFVSCLDYKTNCGSSVDSDDLRFCYIAVAILYICGCRSKEDFDEYIDTEKLLGYIMSQQCYNGAFGAHNEPHSGYTSCALSTLALLSSLEKLSDKFKEDTITWLLHRQVSSHGCMKFESELNASYDQSDDGGFQGRENKFADTCYAFWCLNSLHLLTKDWKMLCQTELVTNYLLDRTQKTLTGGFSKNDEEDADLYHSCLGSAALALIEGKFNGELCIPQEIFNDFSKRCCF,soluble
4,SLDPLFTTQILKYKGDESFTCNDTLVREIKLEIFINDEKVGALMATPVDEQALAIGYLMSENIIAKVSDIESIETKDDGMSVHIKAKIDKENLAKLNAEGVVISGCGRAHTANIDPEAIEASKISSDAKFSKDEILKQMSTFYTQCELYEKTGCVHTAKLFVDEKTFFIGEDIAQHNTIDKALGKACLAGVDLSQCFLMVSGRLSSEMVAKAVMHKIPVLVSRTAPTCLGVMIARKFDLTLCGFARENKINIYSGEFRIHG,soluble
5,MAHTKKRIFDGLYAQLEETDGNVVLFSAKGEPSVIFEITNPVQQLCTDAEQYMLFQDVLSNVVQTLGEGYALQKQDVLCKQSYHHEVPEDAEFLTKSYFRYFEGREFTEIRTYLILTQEAQRSQFVQYDPKKWLDFHSKVSKVSDILKEKNIKYRKLSKEEVNEYCHRFMAFQFRHGPFSMTNFKASDEYLKIGDRVVRSYPLVDIDEINLPSLVKPYTQMNINGYGIATDLFSFLTSVPHADCVVFNQVVQIPNQRKLLRKLQAKAKRHGSMPDPSNKIAKEDIEEVLDRLAVDSTQLVYCNFNILVSCLVDKVTPVTSYLETKLYECGIMPSRTAYNQLELFTDSFPGNGYAFNPDYDLFLTLSDVALCFFFKEHLKGSEDTPLTTYYTDRQGLPVCIDITGKEGKVKMTDNANFFCIGPSGSGKSFHMNSVVRQLLEQNTDVVMVDTGDSYEGICGYYKGTYISYSKEKPISMNPFKVTKEEYDLNFGEKKNFLKSLIFLIFKGNEFPSKIEDMLINQTIVEYYEAYFHPFTKFTEKEREGLRQKLLVASKMEEDYDKFSHSMEDIDAQIREAEMDKQAESRALMLPAEARRLKLLRQCRSLYALAQDEAASKGEKERALQIIENYKKELYNNSMLIKIDKQIDHIEEQKRRLKVRVLSFNSYYEFALERIPQIVAQEKIQFNIRDFAAILKQFYRGGELEMTLNSDLNVNLFDEQFIVFEIDKIKDDPVLFPIVVLIIMDVFLQKMRIKKGRKALIIEEAWL,not soluble
6,MGSDKIHHHHHHMQFTDAVTVAGTRRTADGYLVATARAVRTGIQLYAGHEVGKPDQEVVRVYRAADQVFSTESLQSFSHAPITVDHPDEEVSAENWKALSVGEVSTAAKQDGQWVMLPLILKDAAAIKSVMDGKRELSAGYTCDLDFTPGVTADGEPYDAQQRGIRINHLALVDRARAGSKARIGDDGGPWGAAPISTTDKETITMSDALRTVVVDGLSVTTTDQGAQAISKLLKDLESSAAKLVDAQTRYQAALAAKDADLAKAHAERDAANAKVLSDADLDKRVAARADLITKAKAIAKDVKTDGLSDSAIRKAAVTAALGDAAVRDKADAYIDARFDILVEDAAKKSGGADPFRQVVQNGLQTADNTNGAAAAHNAMVRDMSSAWMMKKEA,not soluble
7,MGSDKIHHHHHHMLMELTTTSHALKEWAVAVNALESGKTIMLLRKGGIHERNGNFQVAHKQILLYPTYEHQQAFMLKPEYANRVYPVTSGWHPETVRIGSWAEITDILPISDEFLVNALLPFHIWNEHFISDRLKWKPRQPLYILLLRTYKLTQDQEIPYHPKYGGCKSWIDLDQSINLQETTPALSDFAYTQLVQTIRGIVGDKMARKIDMLNYNSTFS,not soluble
8,MGSDKIHHHHHHMTVLQLPIIDISGLTCQRNNSSDVVAQQIKQACQDYGFFYIVGHGVDEQLQTQLEHLSQEFFAQDQETKLKISMALGGRAWRGYFPVGNELTSGRPDLKEGIYFGSELKDNHPLVKAGTPMHGRNLFPSNIPQFRETVLEYIDSMTKLGHILMAGIALSLDLDKSYFAERYTKDPLILFRIFNYPPNLGSQSEWGVGEHTDYGVLTILKQDNIGGLQVKSKSGWIDAPPIPGSFVCNIGDMLDRMTRGLYRSTPHRVRNLSTSNRLSFPFFFDPNFNVEVKPIDLKDVVVKDDQSDRWDKASVHEFRGTYGDYLLKKVSKVFPELRQKVL,not soluble
9,NDEDCRNIYRYSPKDRKFEKLNLETDVTSAFAMSENNPSLAAYIGQGCYNAGVAYVYDLKKKTSRLIADPMKPTLERIELGEMKPWNFTASDGTEIKGMMCLPPSFDPNKKYPLIVYYYGGTTPTERGISNPYCAQLFASRDYVVYVIQPSGTIGFGQEFSARHVNAWGKRTADDIIEGTKQFCKEHPFVNDKKIGCLGASYGGFMTQYLQTQTDIFAAAVSHAGISNVTSYWGEGYWGYGYNAIAAADSYPWNNPELFTKQGSLFNADKINTPLLLLHGTVDTNVPIGESIQLFNALKILGKTVEFITVDGENHFIADYPKRMQWHNSIMAWFARWLQ,not soluble
10,LAADQFIVDRPMPEDPYGKTIIAGYHWFSDWGRDTMISLPGLTISTGRPEVARSIIRTFARYVDQGMLPNRFPDAGEQPEYNTVDATLWYFEAVRAYYSATDDDTLLGELFPILADIIDWHCRGTRYNIHLDAADGLLYAGVTGVQLTWMDAKVDDWVVTPRIGKPIEVNALWYNALRTMAKFARHLGKPHQEYEAMADRAKYRFSRFWNDETGYCYDVLDSPNGDDAALRPNQIFAVSLPESPLTPAQQRSVVEVCGRRLLTSHGLRSLAPDHPQYQGKYGGNQYQRDGAYHQGTVWGWLLGPFVLAHLRVYKNPEQARQFLEPMANHLTKHGLGSLSEIFDGDAPMTARGCIAQAWTVAEVLRAWFATES,not soluble
11,MSAKKERVDVLLVERGLIETREKAKRAIMAGLVYANEMRLDKPGEKIPQDTEITVKGQVMPYVSRGGYKLEKALETFHLDLQDKVMIDIGSSTGGFTDCALQNGAKLSYALDVGYNQLAWKLRQDERVVVMERTNFRYVTPADLERGLPQFASIDVSFISLKLILPVLKTMLMPNGDVAALIKPQFEAGREQVGKKGIVRDRKVHEAVVEMIVDFAIKEGYDVEGLTFSPITGGDGNIEFLIHLKWHGERENGENHSPVSVEQVVTEAHDVLKQKGKGE,not soluble
12,MKIISFVLPCLLVLAGCSTPSQPEAPKPPQIGMANPASVYCQQKGGTLIPVQTAQGVSNNCKLPGGETIDEWALWRRDHPAGEKLEHHHHHH,not soluble
13,MSGSTHTTERGTGRAAEAAPPATDRFACYVYGIVPEDVEVSPGTVGVGEPAGQVTLVRHGEIAALVSPVDVDRPLGRASDLVAHERLLDGAAAEVPVLPFRFGAVLTSPEAVVEELLAPHHDQFAAALRQLEGKAQHVLKARYAERPVLLEILRENAEARRLRDRIRDLPEDATRTERIRLGELITQAIEAKREADTQAVLDRFASCTVAANVRDPSHERDAAHVAFLVEHAKADEFAEAVEELSDEWADRVEVRVLGPMAPYDFVVAEG,not soluble
14,MSLNKTFTVEKANRFIAENKHLVNTQYKPEEHFSAEIGWINDPNGFVYFRGEYHLFYQFYPYDSVWGPMHWGHAKSKDLVTWEHLPVALAPDQDYDRNGCFSGSAIVKDDRLWLMYTGHIEEKTGVRQVQNMAFSDDGIHFEKISQNPVATGSDLPDELIAADFRDPKLFEKDGRYYSVVAAKHKNNVGCIVLLGSDNLVEWQFESIFLKGVEHQGFMWECPDYFELDGKDCLIMSPMRYQREGDSYHNINSSLLFTGKVDWGEKCFIPESVQEIDHGQDFYAPQTLLDDQNRRILIAWMQTWGRTLPTHDQEHKWACAMTLPRILRLEDGKLRQFPVKKGQYQIQIDKDCHYHLGNDTDYLEFGYDSNVQQVYIDRSHLIQKILGEEEQDTSRRYVDIEAKELEVVLDKNSIEIFVNQGEASLTATYYLTVPAELSRIDEGHHHHHH,soluble
15,TWTYILRQGDLPPGEMQRYEGGPEPVMVCNVDGEFFAVQDTCTHGDWALSDGYLDGDIVECTLHFGKFCVRTGKVKALPACKPIKVFPIKVEGDEVHVDLDNGELK,soluble
16,MTVYFIGAGPGAADLITVRGQRLLQRCPVCLYAGSIMPDDLLAQCPPGATIVDTGPLTLEQIVRKLADADADGRDVARLHSGDPSLYSALAEQCRELDALGIGYEIVPGVPAFAAAAAALKRELTVPGVAQTVTLTRVATLSTPIPPGEDLAALARSRATLVLHLAAAQIDAIVPRLLDGGYRPETPVAVVAFASWPQQRTLRGTLADIAARMHDAKITRTAVIVVGDVLTAEGFTDSYLYSVARHGRYAQ,not soluble
17,GMELKDIMHILEDMKVGVFATLDEYGNPHARHAHITAANEEGIFFMTSPETHFYDQLMGDQRVAMTAISEEGYLIQVVRVEGTARPVENDYLKTVFADNPYYQHIYKDESSDTMQVFQIYAGHGFYHSLTQGHKYIFSIGQGEHSEVRAL,soluble
18,MSLRPEFQGLQGGLFSSVKKADVGTAVLDLMANGVDMLCWADPFFPDPVLPEHISQAVIKSMENGSASHYTMPIGNPELKEKIALKLQRYNNLTVEAQRNILITPGSDSGLLFAMMPFINNDDEVLIHSPSYPSNFLNVELLGGKPISVELKAENNFQIDIKDFENKITEKTKMVILTNPNNPTGTVLRRESLQAIADFIIAHDLILVVDQAFEDAIFDEIEFISIASLPGMWERTVSVFSFSKGMGLSGFRVGYLVADAQIVDVLFGCTVNVVGATNTSSQAGMIAALDEPSFMGEYTQIFERRRKVVFEMMNAIPGVCMVMPESGFLSWIDISKLGTSTFICDYLLQHAHVMVNSGVPYGQGGEGYIRLVHGCYKDDEKLYAVLTRIQQALMQLAKEKGICHGEGHHHHHH,soluble
19,MDVNPTLLFLKVPAQNAISTTFPYTGDPPYSHGTGTGYTMDTVNRTHQYSEKGRWTTNTETGAPQLNPIDGPLPEDNEPSG,soluble
20,MGSDKIHHHHHHMGVKTAAIKPQINRFFERIINMIIDRERVKNTFAEYTSGYNATDPKIKLKIDHTYRVAELCELIARNLKLDEYETDVAWLTGMLHDVGRFEQIKCYNTFNDALSVDHANFGADLLFKEGLIDTYVDGFHDDKYGTIVENAIRNHSAFRIDERLDEYTVMFCNILRDADKVDIFRVNVDTPAEDIYNVTTEELKNSQVSPEVMAAFDERHAVLRSCKKTVVDHVAGHIALTFELVYPISLQIANERGYLDKMMAFESDNEVTGKQFEEIRAKLNEYVASVKPL,not soluble
21,MSLYTLYSFGTPNGFKPTIMLEELTQPYTIELIDITQGEQFNPDFLKISPNNKIPVLHDQTNDFYLMESVAILQYLAEKHRQFLPETTKEKYTIIQWCYFQAAHIGPMFGQFGHFHRYAQERVPYAMTRYADESMRLLGVMEKQLVKAPFIGGSNYTIADMAIWPWIWCFQFIYGQTIDAKQFPSLMSWYQRISERQAVRATLTAYGREGHHHHHH,soluble
